These results are taken from article PMC3295541 (Biochemistry, 2010).

For one series, the target named is PdxB (Escherichia coli, UniProt P05459). Put plainly: coupled assay with SerC and PdxA, NADH formation at […] nm. In kind it is biochemical.
Substrate in series [1]: O=C(O)CC(=O)C(=O)O
Description: purified protein. Format: biochemical, Escherichia coli. The conditions noted are these: 4PE 29 μM, TND buffer pH 8.0, room temperature.

Substrate in series [2]: O=C(O)CCC(=O)C(=O)O
Put plainly: purified protein. Format: biochemical, Escherichia coli. The conditions noted are these: 4PE 29 μM, TND buffer pH 8.0, room temperature.

Substrate in series [3]: CC(=O)C(=O)O
Put plainly: purified protein. Format: biochemical, Escherichia coli. To be noted: 4PE 29 μM, TND buffer pH 8.0, room temperature.

Substrate in series [4]: O=C(O)[C@H](O)[C@H](O)COP(=O)(O)O
Description: purified protein. To be noted: αKG 2 mM, TND buffer pH 8.0, room temperature. In kind it is biochemical, Escherichia coli.

The series “SEC” deals with the molecule itself. Put plainly: SEC.

A word on the IC50: it is the concentration that inhibits the measured activity by half. Read a high IC50 as weaker potency. Turning to `O=C(O)CC[C@H](O)C(=O)O` [L-2-HGA], the IC50 against PdxB was greater than 2000 µM.

B1: PdxB (4-phospho-D-erythronate dehydrogenase) from E. coli (enzyme, UniProt P05459 1-378, looked up)
chain: MKILVDENMPYARDLFSRLGEVTAVPGRPIPVAQLADADALMVRSVTKVNESLLAGKPIKFVGTATAGTDHVDEAWLKQAGIGFSAAPGCNAIAVVEYVFSSLLMLAERDGFSLYDRTVGIVGVGNVGRRLQARLEALGIKTLLCDPPRADRGDEGDFRSLDELVQRADILTFHTPLFKDGPYKTLHLADEKLIRSLKPGAILINACRGAVVDNTALLTCLNEGQKLSVVLDVWEGEPELNVELLKKVDIGTSHIAGYTLEGKARGTTQVFEAYSKFIGHEQHVALDTLLPAPEFGRITLHGPLDQPTLKRLVHLVYDVRRDDAPLRKVAGIPGEFDKLRKNYLERREWSSLYVICDDASAASLLCKLGFNAVHHPAR
In general, Km refers to the substrate concentration at which the rate is half of its maximum. The term kcat denotes the maximal rate divided by the concentration of active sites. The term kcat/Km denotes the turnover number divided by the Michaelis constant. What is called stoichiometry N is the number of molecules, sites or subunits per partner or assembly. In the case of B1, the Michaelis constant (Km) in “purified protein [1]” was 86 ± 19 µM; in the series “purified protein [2]”, 93 ± 19 µM; in the series “purified protein [3]”, 128 ± 20 µM; in “purified protein [4]”, 2.9 ± 1.3 µM. The kcat in the series “purified protein [1]” is 1.1 ± 0.31 s⁻¹; in “purified protein [2]” it was 1 ± 0.24 s⁻¹; in the series “purified protein [3]”, 1.3 ± 0.14 s⁻¹. Besides, the kcat/Km in “purified protein [1]” stood at 13000 ± 2100 M⁻¹ s⁻¹; in “purified protein [2]”, 11000 ± 2400 M⁻¹ s⁻¹; in “purified protein [3]” it was 9900 ± 160 M⁻¹ s⁻¹. The “stoichiometry N” value in the series “SEC” came to 2.
